Measured values published in patent US20150037348A1 (AbbVie / Abbott, published 2015).
Where “and” joins values, the source holds several entries; their conditions need not be identical. Equal values may be shown once.

T1: human IL-12 (human, UniProt P29459 23-219; P29460 23-328)
T1 construct: recombinant human IL-12 heterodimer (p35/p40, disulfide-linked); also called hIL-12; rhIL-12
T1 sequence (looked up) 1: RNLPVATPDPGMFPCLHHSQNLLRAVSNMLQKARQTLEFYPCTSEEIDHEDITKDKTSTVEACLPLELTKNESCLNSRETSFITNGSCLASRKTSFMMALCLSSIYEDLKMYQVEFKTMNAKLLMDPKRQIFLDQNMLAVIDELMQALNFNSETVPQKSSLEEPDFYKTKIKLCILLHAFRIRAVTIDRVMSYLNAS
T1 sequence (looked up) 2: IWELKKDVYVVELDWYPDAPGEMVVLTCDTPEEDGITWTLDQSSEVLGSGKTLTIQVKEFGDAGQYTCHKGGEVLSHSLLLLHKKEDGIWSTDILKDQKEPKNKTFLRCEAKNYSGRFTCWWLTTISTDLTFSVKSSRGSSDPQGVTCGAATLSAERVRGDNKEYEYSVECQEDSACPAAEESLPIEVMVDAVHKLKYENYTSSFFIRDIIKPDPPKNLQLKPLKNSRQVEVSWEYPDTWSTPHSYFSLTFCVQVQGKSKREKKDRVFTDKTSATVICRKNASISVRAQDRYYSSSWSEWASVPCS


Key:
[1] = target: T1, human IL-12; assay: SPR (BIAcore), IL-12 chip
Text: The system utilizes the optical properties of SPR to detect alterations in protein concentrations within a dextran biosensor matrix. Proteins are covalently bound to the dextran matrix at known concentrations. […] To determine the off rate (koff), on rate (kₒₙ), association rate (Ka) and dissociation rate (Kd) constants, BIAcore kinetic evaluation software (version 2.1) was used.

[2] = target: T1, human IL-12; assay: cell-based or functional assay
[3] = target: T1, human IL-12; assay: RB assay: 125I-hIL-12 binding to PHA blasts
Protocol: PHA blast cells isolated as described above, were washed once and resuspended in binding buffer to a cell density of 2×10⁷ cells/ml. […] The cell pellet was examined for cell bound radioactivity using a gamma counter. […] Incubations were carried out in duplicate.

koff [1]	PHA assay IC50 [2]	IC50 [3]	Binder
0.0074 s⁻¹	60 nM	–	26-1 (scFv, V domains shown, scFv; also called 26-1 (2, 3)) VH: QVQLVQSGGGVVQPGRSLRLSCAASGFTFSSYGMHWVRQAPGKGLEWVAFIRYDGSNKYYADSVKGRFTISRDNSKNTLYLQMKSLRAEDTAVYYCTTHGSHDNWGQGTMVTVSS VL: SYVLTQPPSVSGTPGQRVTISCSGGRSNIGSNTVKWYQQLPGTAPKLLIYGNDQRPSGVPDRFSGSKSGTSASLAITGVQAEDEADYYCQSYDSSLWGSRVFGTGTKVTVL
0.00046 s⁻¹	6 nM	–	136-15 germline (scFv, V domains shown) VH: QVQLVESGGGVVQPGRSLRLSCAASGFTFSSYGMHWVRQAPGKGLEWVAFIRYDGSNKYYADSVKGRFTISRDNSKNTLYLQMNSLRAEDTAVYYCKTHGSHDNWGQGTMVTVSS VL: QSVLTQPPSVSGAPGQRVTISCSGSRSNIGSNTVKWYQQLPGTAPKLLIYGNDQRPSGVPDRFSGSKSGTSASLAITGLQAEDEADYYCQTYDKGFTGSSVFGTGTKVTVL
0.00113 s⁻¹	3 nM	0.9 nM	149-7 (scFv, V domains shown, scFv) VH: QVQLVQSGGGVVQPGRSLRLSCAASGFTFSSYGMHWVRQAPGKGLEWVAFIRYDGSNKYYADSVKGRFTISRDNSKNTLYLQMKSLRAEDTAVYYCTTHGSHDNWGQGTMVTVSS VL: SYVLTQPPSVSGTPGQRVTISCSGGRSNIGSNTVKWYQQLPGTAPKLLIYGNDQRPSGVPDRFSGSKSGTSASLAITGVQAEDEADYYCQSYDRDFTGSRVFGTGTKVTVL
0.0164 s⁻¹	600 nM	200 nM	78-34 (scFv, V domains shown, scFv) VH: QVQLVQSGGGVVQPGRSLRLSCAASGFTFSSYGMHWVRQAPGKGLEWVAFIRYDGSNKYYADSVKGRFTISRDNSKNTLYLQMKSLRAEDTAVYYCTTSGSYDYWGQGTMVTVSS VL: SYVLTQPPSVSGTPGQRVTISCSGGRSNIGSNTVKWYQQLPGTAPKLLIYGNDQRPSGVPDRFSGSKSGTSASLAITGVQAEDEADYYCQSYDRGFTGSRVFGTGTKVTVL
0.00016 s⁻¹	0.9 nM	0.086 nM	103-4 (scFv, V domains shown, scFv) VH: QVQLVQSGGGVVQPGRSLRLSCAASGFTFSSYGMHWVRQAPGKGLEWVAFIRYDGSNKYYADSVKGRFTISRDNSKNTLYLQMKSLRAEDTAVYYCTTHGSHDNWGQGTMVTVSS VL: SYVLTQPPSVSGTPGQRVTISCSGGRSNIVSNTVKWYQQLPGTAPKLLIYGNDQRPSGVPDRFSGSKSGTSASLAITGVQAEDEADYYCQSYDRGFTGARVFGTGTKVTVL
0.00033 s⁻¹	1.5 nM	0.06 nM	103-8 (scFv, V domains shown, scFv) VH: QVQLVQSGGGVVQPGRSLRLSCAASGFTFSSYGMHWVRQAPGKGLEWVAFIRYDGSNKYYADSVKGRFTISRDNSKNTLYLQMKSLRAEDTAVYYCKTHGSHDNWGQGTMVTVSS VL: SYVLTQPPSVSGTPGQRVTISCSGGRSNIGSNTVKWYQQLPGTAPKLLIYGNDQRPSGVPDRFSGSKSGTSASLAITGVQAEDEADYYCQTYDKGFTGSSVFGTGTKVTVL
0.0134 s⁻¹	200 nM	–	70-1 (scFv, V domains shown, scFv) VH: QVQLVQSGGGVVQPGRSLRLSCAASGFTFSSYGMHWVRQAPGKGLEWVAFIRYDGSNKYYADSVKGRFTISRDNSKNTLYLQMKSLRAEDTAVYYCTTHGSHDNWGQGTMVTVSS VL: SYVLTQPPSVSGTPGQRVTISCSGGRSNIGSNTVKWYQQLPGTAPKLLIYGNDQRPSGVPDRFSGSKSGTSASLAITGVQAEDEADYYCQSYDSSLRGSRVFGTGTKVTVL
0.00137 s⁻¹	3 nM	0.08 nM	149-4 (scFv, V domains shown, scFv) VH: QVQLVQSGGGVVQPGRSLRLSCAASGFTFSSYGMHWVRQAPGKGLEWVAFIRYDGSNKYYADSVKGRFTISRDNSKNTLYLQMKSLRAEDTAVYYCTTHGSHDNWSQGTMVTVSS VL: SYVLTQPPSVSGTPGQRVTISCSGGRSNIGSNTVKWYQQLPGTAPKLLIYGNDQRPSGVPDRFSGSKSGTSASLAITGVQAEDEADYYCQSYDRGFTGSRVFGTGTKVTVL
0.00067 s⁻¹	1.2 nM	0.04 nM	103-14 & 9 (scFv, V domains shown, scFv) VH: QVQLVQSGGGVVQPGRSLRLSCAASGFTFSSYGMHWVRQAPGKGLEWVAFIRYDGSNKYYADSVKGRFTISRDNSKNTLYLQMKSLRAEDTAVYYCKTHGSHDNWGQGTMVTVSS VL: SYVLTQPPSVSGTPGQRVTISCSGGRSNIGSNTVKWYQQLPGTAPKLLIYGNDQRPSGVPDRFSGSKSGTSASLAITGVQAEDEADYYCQSYDRGFTGSMVFGTGTKVTVL
0.00053 s⁻¹	1.5 nM	–	103-8 & 2 (scFv, V domains shown, scFv) VH: QVQLVQSGGGVVQPGRSLRLSCAASGFTFSSYGMHWVRQAPGKGLEWVAFIRYDGSNKYYADSVKGRFTISRDNSKNTLYLQMKSLRAEDTAVYYCKTHGSHDNWGQGTMVTVSS VL: SYVLTQPPSVSGTPGQRVTISCSGGRSNIGSNTVKWYQQLPGTAPKLLIYGNDQRPSGVPDRFSGSKSGTSASLAITGVQAEDEADYYCQTYDKGFTGSSVFGTGTKVTVL
0.00037 s⁻¹	1 nM	0.14 nM	103-7 (scFv, V domains shown, scFv) VH: QVQLVQSGGGVVQPGRSLRLSCAASGFTFSSYGMHWVRQAPGKGLEWVAFIRYDGSNKYYADSVKGRFTISRDNSKNTLYLQMKSLRAEDTAVYYCTTHGSHDDWGQGTMVTVSS VL: SYVLTQPPSVSGTPGQRVTISCSGGRSNIGSNTVKWYQQLPGTAPKLLIYGNDQRPSGVPDRFSGSKSGTSASLAITGVQAEDEADYYCQSYDRDFTGTRVFGTGTKVTVL
–	600 nM	200 nM	79-1 (scFv, V domains shown, scFv) VH: QVQLVQSGGGVVQPGRSLRLSCAASGFTFSSYGMHWVRQAPGKGLEWVAFIRYDGSNKYYADSVKGRFTISRDNSKNTLYLQMKSLRAEDTAVYYCTTSGSYDYWGQGTMVTVSS VL: SYVLTQPPSVSGTPGQRVTISCSGGRSNIGSNTVKWYQQLPGTAPKLLIYGNDQRPSGVPDRFSGSKSGTSASLAITGVQAEDEADYYCQSYDSSLWGSRVFGTGTKVTVL
0.0143 s⁻¹	4 nM	0.2 nM	149-11 (scFv, V domains shown, scFv) VH: QVQLVQSGGGVVQPGRSLRLSCAASGFTFSSYGMHWVRQAPGKGLEWVAFIRYDGSNKYYADSVKGRFTISRDNSKNTLYLQMKSLRAEDTAVYYCTTHGSHDNWSQGTMVTVSS VL: SYVLTQPPSVSGTPGQRVTISCSGGRSNIGSNTVKWYQQLPGTAPKLLIYGNDQRPSGVPDRFSGSKSGTSASLAITGVQAEDEADYYCQSYDNGFTGARVFGTGTKVTVL
0.0045 s⁻¹	30 nM and 20 nM	2 nM	101-11 (scFv, V domains shown, scFv) VH: QVQLVQSGGGVVQPGRSLRLSCAASGFTFSSYGMHWVRQAPGKGLEWVAFIRYDGSNKYYADSVKGRFTISRDNSKNTLYLQMKSLRAEDTAVYYCTTHGSHDNWGQGTMVTVSS VL: SYVLTQPPSVSGTPGQRVTISCSGGRSNIGSNTVKWYQQLPGTAPKLLIYGNDQRPSGVPDRFSGSKSGTSASLAITGVQAEDEADYYCQSYDRGFTGSRVFGTGTKVTVL
